# Assay results taken from patent publication US20220389106A1 (University of Texas, published 2022).
# T1: recombinant hu-EphA10 Fc chimera protein [the extracellular domain (Glu34-Ala565)] (human, UniProt Q5JZY3 34-565)
# T1 construct: range 34-565; Purified from 293T cells; also called hu-EphA10 Fc protein; not shown: Fc part of the chimera
# T1 sequence (looked up): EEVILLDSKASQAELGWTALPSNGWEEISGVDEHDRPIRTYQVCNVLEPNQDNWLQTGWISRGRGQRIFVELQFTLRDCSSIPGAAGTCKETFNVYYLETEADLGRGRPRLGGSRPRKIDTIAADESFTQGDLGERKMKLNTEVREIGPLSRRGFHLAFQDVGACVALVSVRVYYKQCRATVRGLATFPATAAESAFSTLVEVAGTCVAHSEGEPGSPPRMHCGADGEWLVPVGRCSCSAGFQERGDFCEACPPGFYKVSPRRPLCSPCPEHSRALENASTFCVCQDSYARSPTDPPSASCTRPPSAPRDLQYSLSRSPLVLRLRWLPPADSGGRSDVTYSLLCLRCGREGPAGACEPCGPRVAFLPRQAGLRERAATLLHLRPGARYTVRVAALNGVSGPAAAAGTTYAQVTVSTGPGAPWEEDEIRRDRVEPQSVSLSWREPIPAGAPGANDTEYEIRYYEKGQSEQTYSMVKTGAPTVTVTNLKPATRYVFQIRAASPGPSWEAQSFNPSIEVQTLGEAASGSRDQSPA
# Target: T1, recombinant hu-EphA10 Fc chimera …
# Test: ELISA screening (FIG. 1C)
row,binding result,Binder
1,binds,"anti-hu-EphA10 antibody Clone 8 (antibody, IgG1, V domains shown) VH: QVQLQQSGPELVKPGPLVKISCKASGYTFTSYDITWVKQRPGQGLEWIGWIYPGDGSTKYNEKFKGKATLTADKSSSTAYMQLSSLTSENSAVYFCARGGRLPYFDYWGQGTTLTVSS VL: NIVLTQSPASLAVSLGQRATISCRASESVDSYGNSFMHWYQQKPGQPPKLLIYLASNLESAVPARFSGSGSRTDFTLTIDPVEADDAATYYCQQNNEYPWTFGGGTKLEIK"
2,binds,"anti-hu-EphA10 antibody Clone 9 (antibody, IgG1, V domains shown, also called anti-EphA10 (clone 9); anti-EphA10 (clone 9)-pHrodo) VH: QVQLQQSGAELMKPGASVKISCKATGYTFSTYWIEWVKQRPGHGLEWIGEILPGSGRTNYKEKFKDKATFTANTSSTTAYMQLSSLTSEDSAVYYCAIDWYWGQGTTLTVSS VL: QIVLTQSPAIMSASPGEKVTITCSASSSVSYMYWFQQKPGTSPKLWIYSTSNLASGVPARFSGSGSGTSYSLTISRMEAEDAATYYCQQRNSYPPTFGGGTKLEIK"
3,binds,"anti-hu-EphA10 antibody Clone 4 (antibody, IgG1, V domains shown) VH: EVKLEESGGGLVQPGGSMKLSCVASGFTFSYYWMNWVRQSPEKGLEWVAEIRLKSNNYATHYAESVKGRFTISRDDSKSSVYLQMNNLRAEDSGIYYCTFYYGSSAWFAYWGQGTLVTVSA VL: DIQMTQSPASLSASVGETVTITCRASENIYSYLAWYQQKQGKSPQLLVYNVKTLTEGVPSRFSGSGSGTQFSLKIDSLQPEDFGSYYCQHHYVTPPTFGAGTKLELK"
